According to patent publication US20130336893A1 (Sanofi, published 2013):
*1 amine or outer side, *2 acyl side, *3 side chain or, on linkers, in order; H or OH if unused. Where no end group is shown, it is not given here. Side-chain parts run from the residue outwards. [ ]: non-standard residue; d: D form. The star is where a group is joined. γGlu = O=C(O)[C@H](CCC(=O)[*:2])N[*:1]; Palmitoyl = CCCCCCCCCCCCCCCC(=O)*; Aib = CC(C)(N)C(=O)O; GABA = NCCCC(=O)O

Experiments:
human GLP-1 receptor = human GLP-1 receptor (human, UniProt P43220 24-463); test: cell-based or functional assay
human glucagon receptor = human glucagon receptor (human, UniProt P47871 26-477); test: cell-based or functional assay
Sequence of human glucagon receptor (P47871 26-477): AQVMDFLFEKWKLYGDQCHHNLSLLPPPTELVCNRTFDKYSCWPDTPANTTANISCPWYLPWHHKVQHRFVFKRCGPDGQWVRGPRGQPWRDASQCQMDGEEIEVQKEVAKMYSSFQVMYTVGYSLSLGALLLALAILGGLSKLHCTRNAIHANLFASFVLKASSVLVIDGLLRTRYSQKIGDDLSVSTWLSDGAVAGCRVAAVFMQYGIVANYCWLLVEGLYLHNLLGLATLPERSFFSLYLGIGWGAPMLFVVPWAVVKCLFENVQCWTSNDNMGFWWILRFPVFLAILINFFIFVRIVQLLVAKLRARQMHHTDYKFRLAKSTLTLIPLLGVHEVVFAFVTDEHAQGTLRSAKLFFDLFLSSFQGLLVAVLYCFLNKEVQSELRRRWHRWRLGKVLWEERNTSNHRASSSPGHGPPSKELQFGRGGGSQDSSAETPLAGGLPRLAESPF

Binder	EC50 hGLP-1R (cAMP formation) (human GLP-1 receptor) [nM]	EC50 hGlucagonR (cAMP formation) (human glucagon receptor) [nM]
H[dS]QGTFTSDLSKQMEEEAAKDFIEWLKAGGPSSGAPPPSK([γGlu-Palmitoyl])-NH2 (N-terminus assumed; SMILES CCCCCCCCCCCCCCCC(=O)N[C@@H](CCC(=O)NCCCC[C@H](NC(=O)[C@H](CO)NC(=O)[C@@H]1CCCN1C(=O)[C@@H]1CCCN1C(=O)[C@@H]1CCCN1C(=O)[C@H](C)NC(=O)CNC(=O)[C@H](CO)NC(=O)[C@H](CO)NC(=O)[C@@H]1CCCN1C(=O)CNC(=O)CNC(=O)[C@H](C)NC(=O)[C@H](CCCCN)NC(=O)[C@H](CC(C)C)NC(=O)[C@H](Cc1c[nH]c2ccccc12)NC(=O)[C@H](CCC(=O)O)NC(=O)[C@@H](NC(=O)[C@H](Cc1ccccc1)NC(=O)[C@H](CC(=O)O)NC(=O)[C@H](CCCCN)NC(=O)[C@H](C)NC(=O)[C@H](C)NC(=O)[C@H](CCC(=O)O)NC(=O)[C@H](CCC(=O)O)NC(=O)[C@H](CCC(=O)O)NC(=O)[C@H](CCSC)NC(=O)[C@H](CCC(N)=O)NC(=O)[C@H](CCCCN)NC(=O)[C@H](CO)NC(=O)[C@H](CC(C)C)NC(=O)[C@H](CC(=O)O)NC(=O)[C@H](CO)NC(=O)[C@@H](NC(=O)[C@H](Cc1ccccc1)NC(=O)[C@@H](NC(=O)CNC(=O)[C@H](CCC(N)=O)NC(=O)[C@@H](CO)NC(=O)[C@@H](N)Cc1c[nH]cn1)[C@@H](C)O)[C@@H](C)O)[C@@H](C)CC)C(N)=O)C(=O)O) [SEQ ID NO: (110)]	0.0029	0.323
H[dS]QGTFTSDLSKQMESRRAQDFIEWLKSGGPSSGAPPPK([GABA-Palmitoyl])-NH2 (N-terminus assumed; SMILES CCCCCCCCCCCCCCCC(=O)NCCCC(=O)NCCCC[C@H](NC(=O)[C@@H]1CCCN1C(=O)[C@@H]1CCCN1C(=O)[C@@H]1CCCN1C(=O)[C@H](C)NC(=O)CNC(=O)[C@H](CO)NC(=O)[C@H](CO)NC(=O)[C@@H]1CCCN1C(=O)CNC(=O)CNC(=O)[C@H](CO)NC(=O)[C@H](CCCCN)NC(=O)[C@H](CC(C)C)NC(=O)[C@H](Cc1c[nH]c2ccccc12)NC(=O)[C@H](CCC(=O)O)NC(=O)[C@@H](NC(=O)[C@H](Cc1ccccc1)NC(=O)[C@H](CC(=O)O)NC(=O)[C@H](CCC(N)=O)NC(=O)[C@H](C)NC(=O)[C@H](CCCNC(=N)N)NC(=O)[C@H](CCCNC(=N)N)NC(=O)[C@H](CO)NC(=O)[C@H](CCC(=O)O)NC(=O)[C@H](CCSC)NC(=O)[C@H](CCC(N)=O)NC(=O)[C@H](CCCCN)NC(=O)[C@H](CO)NC(=O)[C@H](CC(C)C)NC(=O)[C@H](CC(=O)O)NC(=O)[C@H](CO)NC(=O)[C@@H](NC(=O)[C@H](Cc1ccccc1)NC(=O)[C@@H](NC(=O)CNC(=O)[C@H](CCC(N)=O)NC(=O)[C@@H](CO)NC(=O)[C@@H](N)Cc1c[nH]cn1)[C@@H](C)O)[C@@H](C)O)[C@@H](C)CC)C(N)=O) [SEQ ID NO: (124)]	0.0139	0.0213
H[dS]QGTFTSDLSKQMESEAAQLFIEWLKAGGPSSGAPPPSK([γGlu-Palmitoyl])-NH2 (N-terminus assumed; SMILES CCCCCCCCCCCCCCCC(=O)N[C@@H](CCC(=O)NCCCC[C@H](NC(=O)[C@H](CO)NC(=O)[C@@H]1CCCN1C(=O)[C@@H]1CCCN1C(=O)[C@@H]1CCCN1C(=O)[C@H](C)NC(=O)CNC(=O)[C@H](CO)NC(=O)[C@H](CO)NC(=O)[C@@H]1CCCN1C(=O)CNC(=O)CNC(=O)[C@H](C)NC(=O)[C@H](CCCCN)NC(=O)[C@H](CC(C)C)NC(=O)[C@H](Cc1c[nH]c2ccccc12)NC(=O)[C@H](CCC(=O)O)NC(=O)[C@@H](NC(=O)[C@H](Cc1ccccc1)NC(=O)[C@H](CC(C)C)NC(=O)[C@H](CCC(N)=O)NC(=O)[C@H](C)NC(=O)[C@H](C)NC(=O)[C@H](CCC(=O)O)NC(=O)[C@H](CO)NC(=O)[C@H](CCC(=O)O)NC(=O)[C@H](CCSC)NC(=O)[C@H](CCC(N)=O)NC(=O)[C@H](CCCCN)NC(=O)[C@H](CO)NC(=O)[C@H](CC(C)C)NC(=O)[C@H](CC(=O)O)NC(=O)[C@H](CO)NC(=O)[C@@H](NC(=O)[C@H](Cc1ccccc1)NC(=O)[C@@H](NC(=O)CNC(=O)[C@H](CCC(N)=O)NC(=O)[C@@H](CO)NC(=O)[C@@H](N)Cc1c[nH]cn1)[C@@H](C)O)[C@@H](C)O)[C@@H](C)CC)C(N)=O)C(=O)O) [SEQ ID NO: (114)]	0.0031	0.295
H[dS]QGTFTSDLSKQMES[Aib]AAQDFIEWLKAGGPSSGAPPPSK([γGlu-Palmitoyl])-NH2 (N-terminus assumed; SMILES CCCCCCCCCCCCCCCC(=O)N[C@@H](CCC(=O)NCCCC[C@H](NC(=O)[C@H](CO)NC(=O)[C@@H]1CCCN1C(=O)[C@@H]1CCCN1C(=O)[C@@H]1CCCN1C(=O)[C@H](C)NC(=O)CNC(=O)[C@H](CO)NC(=O)[C@H](CO)NC(=O)[C@@H]1CCCN1C(=O)CNC(=O)CNC(=O)[C@H](C)NC(=O)[C@H](CCCCN)NC(=O)[C@H](CC(C)C)NC(=O)[C@H](Cc1c[nH]c2ccccc12)NC(=O)[C@H](CCC(=O)O)NC(=O)[C@@H](NC(=O)[C@H](Cc1ccccc1)NC(=O)[C@H](CC(=O)O)NC(=O)[C@H](CCC(N)=O)NC(=O)[C@H](C)NC(=O)[C@H](C)NC(=O)C(C)(C)NC(=O)[C@H](CO)NC(=O)[C@H](CCC(=O)O)NC(=O)[C@H](CCSC)NC(=O)[C@H](CCC(N)=O)NC(=O)[C@H](CCCCN)NC(=O)[C@H](CO)NC(=O)[C@H](CC(C)C)NC(=O)[C@H](CC(=O)O)NC(=O)[C@H](CO)NC(=O)[C@@H](NC(=O)[C@H](Cc1ccccc1)NC(=O)[C@@H](NC(=O)CNC(=O)[C@H](CCC(N)=O)NC(=O)[C@@H](CO)NC(=O)[C@@H](N)Cc1c[nH]cn1)[C@@H](C)O)[C@@H](C)O)[C@@H](C)CC)C(N)=O)C(=O)O) [SEQ ID NO: (111)]	0.0041	0.206
H[dS]QGTFTSDLSKQMEEEAA[Aib]DFIEWLKAGGPSSGAPPPSK([γGlu-Palmitoyl])-NH2 (N-terminus assumed; SMILES CCCCCCCCCCCCCCCC(=O)N[C@@H](CCC(=O)NCCCC[C@H](NC(=O)[C@H](CO)NC(=O)[C@@H]1CCCN1C(=O)[C@@H]1CCCN1C(=O)[C@@H]1CCCN1C(=O)[C@H](C)NC(=O)CNC(=O)[C@H](CO)NC(=O)[C@H](CO)NC(=O)[C@@H]1CCCN1C(=O)CNC(=O)CNC(=O)[C@H](C)NC(=O)[C@H](CCCCN)NC(=O)[C@H](CC(C)C)NC(=O)[C@H](Cc1c[nH]c2ccccc12)NC(=O)[C@H](CCC(=O)O)NC(=O)[C@@H](NC(=O)[C@H](Cc1ccccc1)NC(=O)[C@H](CC(=O)O)NC(=O)C(C)(C)NC(=O)[C@H](C)NC(=O)[C@H](C)NC(=O)[C@H](CCC(=O)O)NC(=O)[C@H](CCC(=O)O)NC(=O)[C@H](CCC(=O)O)NC(=O)[C@H](CCSC)NC(=O)[C@H](CCC(N)=O)NC(=O)[C@H](CCCCN)NC(=O)[C@H](CO)NC(=O)[C@H](CC(C)C)NC(=O)[C@H](CC(=O)O)NC(=O)[C@H](CO)NC(=O)[C@@H](NC(=O)[C@H](Cc1ccccc1)NC(=O)[C@@H](NC(=O)CNC(=O)[C@H](CCC(N)=O)NC(=O)[C@@H](CO)NC(=O)[C@@H](N)Cc1c[nH]cn1)[C@@H](C)O)[C@@H](C)O)[C@@H](C)CC)C(N)=O)C(=O)O) [SEQ ID NO: (115)]	0.0007	0.175
H[dS]QGTFTSDLSKQMEEEAAKLFIEWLKAGGPSSGAPPPSK([γGlu-Palmitoyl])-NH2 (N-terminus assumed; SMILES CCCCCCCCCCCCCCCC(=O)N[C@@H](CCC(=O)NCCCC[C@H](NC(=O)[C@H](CO)NC(=O)[C@@H]1CCCN1C(=O)[C@@H]1CCCN1C(=O)[C@@H]1CCCN1C(=O)[C@H](C)NC(=O)CNC(=O)[C@H](CO)NC(=O)[C@H](CO)NC(=O)[C@@H]1CCCN1C(=O)CNC(=O)CNC(=O)[C@H](C)NC(=O)[C@H](CCCCN)NC(=O)[C@H](CC(C)C)NC(=O)[C@H](Cc1c[nH]c2ccccc12)NC(=O)[C@H](CCC(=O)O)NC(=O)[C@@H](NC(=O)[C@H](Cc1ccccc1)NC(=O)[C@H](CC(C)C)NC(=O)[C@H](CCCCN)NC(=O)[C@H](C)NC(=O)[C@H](C)NC(=O)[C@H](CCC(=O)O)NC(=O)[C@H](CCC(=O)O)NC(=O)[C@H](CCC(=O)O)NC(=O)[C@H](CCSC)NC(=O)[C@H](CCC(N)=O)NC(=O)[C@H](CCCCN)NC(=O)[C@H](CO)NC(=O)[C@H](CC(C)C)NC(=O)[C@H](CC(=O)O)NC(=O)[C@H](CO)NC(=O)[C@@H](NC(=O)[C@H](Cc1ccccc1)NC(=O)[C@@H](NC(=O)CNC(=O)[C@H](CCC(N)=O)NC(=O)[C@@H](CO)NC(=O)[C@@H](N)Cc1c[nH]cn1)[C@@H](C)O)[C@@H](C)O)[C@@H](C)CC)C(N)=O)C(=O)O) [SEQ ID NO: (113)]	0.002	0.311
HSQGTFTSDLSKQMEEERAKDFIEWLKNGGPSSGAPPPS-NH2 [SEQ ID NO: (17)]	0.0241	3.36
H[dS]QGTFTSDLSKQMES[Aib]AAQLFIEWLKAGGPSSGAPPPSK([γGlu-Palmitoyl])-NH2 (N-terminus assumed; SMILES CCCCCCCCCCCCCCCC(=O)N[C@@H](CCC(=O)NCCCC[C@H](NC(=O)[C@H](CO)NC(=O)[C@@H]1CCCN1C(=O)[C@@H]1CCCN1C(=O)[C@@H]1CCCN1C(=O)[C@H](C)NC(=O)CNC(=O)[C@H](CO)NC(=O)[C@H](CO)NC(=O)[C@@H]1CCCN1C(=O)CNC(=O)CNC(=O)[C@H](C)NC(=O)[C@H](CCCCN)NC(=O)[C@H](CC(C)C)NC(=O)[C@H](Cc1c[nH]c2ccccc12)NC(=O)[C@H](CCC(=O)O)NC(=O)[C@@H](NC(=O)[C@H](Cc1ccccc1)NC(=O)[C@H](CC(C)C)NC(=O)[C@H](CCC(N)=O)NC(=O)[C@H](C)NC(=O)[C@H](C)NC(=O)C(C)(C)NC(=O)[C@H](CO)NC(=O)[C@H](CCC(=O)O)NC(=O)[C@H](CCSC)NC(=O)[C@H](CCC(N)=O)NC(=O)[C@H](CCCCN)NC(=O)[C@H](CO)NC(=O)[C@H](CC(C)C)NC(=O)[C@H](CC(=O)O)NC(=O)[C@H](CO)NC(=O)[C@@H](NC(=O)[C@H](Cc1ccccc1)NC(=O)[C@@H](NC(=O)CNC(=O)[C@H](CCC(N)=O)NC(=O)[C@@H](CO)NC(=O)[C@@H](N)Cc1c[nH]cn1)[C@@H](C)O)[C@@H](C)O)[C@@H](C)CC)C(N)=O)C(=O)O) [SEQ ID NO: (112)]	0.0097	0.876
